Data: US20120083036A1, “POLYSACCHARIDE TRANSFERASE” (ADELAIDE RESEARCH AND INNOVATION PTY LTD, priority 2006, published 2012)
“Also recorded” adds a separate entry of the source. Like-named read-outs stand apart in the source and are kept apart here.

Experiments:
HvXET5 [1] = biological target: T1, HvXET5 (Hordeum vulgare, UniProt P93668); settings: 1 nM HvXET5, pH 6
Experimental: The effect of Ca^2+ (as calcium chloride) and Mg^2+ (as magnesium sulfate), both in 0-15 mM concentration ranges, and of EDTA in a 0-20 mM concentration range, were determined by incubating 1 nM HvXET5 in 100 mM succinate buffer, pH 6. Enzyme activities were determined radiometrically as specified above, in triplicate and with a standard error of 8-10%.

HvXET5 [2] = biological target: T1, HvXET5; assay: pH optimum and enzyme stability of HvXET5; format: biochemical, barley (Hordeum vulgare L., cv. Clipper)
Experimental: The effect of pH on the activity of HvXET5 was determined by incubating 1 nM HvXET5 at 30° C. for 60 min in 50 mM citric acid/100 mM sodium dihydrophosphate (McIlvaine) buffers, pH 4.0-8.5 in the presence of 0.02% (w/v) BSA. […] The thermal stability of HvXET5 was determined after 15 min incubation at 0-70° C. The freeze/thaw stability of HvXET5 at 1 nM concentration was determined after three cycles of freezing (−80° C.) and thawing (4° C.), each of 3 min duration. Activity was subsequently measured at 30° C. in 100 mM ammonium acetate buffer, pH 6, containing 5 mM calcium chloride, without and with the addition of 10% (v/v) glycerol. Enzyme activity was determined radiometrically as specified above, and expressed as % activity relative to maximal activity. Assays were performed in triplicate and standard errors of 8-14% were observed.

HvXET5 [3] = biological target: T1, HvXET5; assay: Radiometric activity assay of HvXET5 with TXG and [3H]-labelled XXXGol; format: biochemical, barley (Hordeum vulgare L., cv. Clipper); settings: purified enzyme; 30° C., pH 6.0, 0.3% (w/v) TXG
Experimental: The activity of HvXET5 during enzyme purification was determined radiometrically at 30° C. in 100 mM succinate or ammonium acetate buffers, pH 6.0, containing 5 mM calcium chloride, 0.3% (w/v) TXG and [^3H]-labelled xyloglucan-derived saccharide heptaitol (XXXGol, specific radioactivity 83 MBq·μmol^−1) (Fry, et al., Biochem. J. 282, 821-828, 1992) with approximately 30,000 dpm per reaction mixture. The radioactivity incorporated in reaction products was counted on 2×1 cm Whatman chromatography 3MM paper strips in plastic vials and using LSC6500 Scintillation counter (Beckman, Fullerton, USA) with approximately 48% efficiency for tritium, using EcoLume scintillation fluid, and with 70% quenching. Enzyme activity of HvXET5 during purification is expressed in katals, where 1 kat represents 1 mol of product formed per s; specific activity is expressed in pkat·mg^−1 protein.

[4] = substrate: OC[C@@H](O)[C@@H](O[C@@H]1O[C@H](CO[C@H]2OC[C@@H](O)[C@H](O)[C@H]2O)[C@@H](O[C@@H]2O[C@H](CO[C@H]3OC[C@@H](O)[C@H](O)[C@H]3O)[C@@H](O[C@@H]3O[C@H](CO[C@H]4OC[C@@H](O)[C@H](O)[C@H]4O)[C@@H](O)[C@H](O)[C@H]3O)[C@H](O)[C@H]2O)[C@H](O)[C@H]1O)[C@H](O)[C@@H](O)CO; assay: Km and kcat constants of HvXET5; format: biochemical, barley (Hordeum vulgare L., cv. Clipper); settings: other: acceptor substrate
[5] = concentrations between 5 and 15 mM

For `[Ca+2].[Cl-].[Cl-]` [Ca^2+, calcium chloride], the “Stimulation of HvXET5 activity” value (HvXET5 [1]; [5]) was 7-8%.

`O=S(=O)([O-])[O-].[Mg+2]` [Mg^2+, magnesium sulfate] was tested, and the “Inhibition of HvXET5 activity” value (HvXET5 [1]; [5]) was 3-4%.

`OCC(O)CO` [glycerol] was tested, and the “Effect on HvXET activity after freeze-thawing cycles” value (HvXET5 [2]; 10% (v/v) addition) was “no effect”.

For “ethylenediamine tetraacetic (disodium salt, dihydrate) [EDTA]”, the “Inhibition of HvXET5 activity” value (HvXET5 [1]; 2-20 mM concentration ranges) was “approximately 30%”.

B1: HvXET5: barley xyloglucan xyloglucosyl transferase (XET isoenzyme) purified from extracts of 7-day-old barley seedlings (protein)
chain: MKATAGALLAVVATVLLRGIAAAPPRKPVDVPFEKNYVPTWAEDHIHYVNGGREVQLSLDKTTGTGFQTRGSYLFGHFSMHIKLVGGDSAGTVTAFYLSSQNSEHDEIDFEFLGNRTGQPYILQTNVFSGGKGDREQRIYLWFDPTKDYHSYSVLWNLYMIAFFVDDTPIRVFKNSKDLGVRYPFDQPMKLYSSLWNADDWATRGGREKTDWSKAPFVASYRGFHVDGCEASAEAKLCATQGARWWDQPEFQDLDAAQYRRLAWVRKEHTIYNYCTDRERYAAMSPECKRDRDV
modifications: Hordeum vulgare
notes: barley xyloglucan xyloglucosyl transferase (XET isoenzyme) purified from extracts of 7-day-old barley seedlings
For B1, the Specific activity (HvXET5 [3]) was 3,630 pkat·mg^−1, the “Activity at 0° C. relative to activity observed at 30° C.” value (HvXET5 [2]; 0° C.) was “approximately 40%” and the pH optimum (HvXET5 [2]; 30° C., McIlvaine buffers pH 4.0-8.5) was 6.0. The Freeze/thaw stability (HvXET5 [2]; several freeze-thaw cycles) was “did not lose activity”, the “Storage stability (retention of activity)” value (HvXET5 [2]; stored at −20° C.) was “retained its activity for at least a year; also recorded: remained more or less constant for at least a year” and the “Effect of buffer ionic strength on activity” value (HvXET5 [2]; succinate, ammonium acetate or sodium phosphate buffers, each at 50-200 mM) was “unaffected”.

B2: HvXET5 (Hordeum vulgare) (protein)
chain: APPRKPVDVPFEKNYVPTWAEDHIHYVNGGREVQLSLDKTTGTGFQTRGSYLFGHFSMHIKLVGGDSAGTVTAFYLSSQNSEHDEIDFEFLGNRTGQPYILQTNVFSGGKGDREQRIYLWFDPTKDYHSYSVLWNLYMIAFFVDDTPIRVFKNSKDLGVRYPFDQPMKLYSSLWNADDWATRGGREKTDWSKAPFVASYRGFHVDGCEASAEAKLCATQGARWWDQPEFQDLDAAQYRRLAWVRKEHTIYNYCTDRERYAAMSPECKRDRDV
For B2, the Km [4] was 69·10^−6 M.
